Laboratory results: patent US8258099B2, “Pin1-modulating compounds and methods of use thereof” (Max-Planck-Gesellschaft zur Foerderung der Wissenschaften …, priority 2004, dated 2012)
Like-named read-outs stand apart in the source and are kept apart here. Each block holds one molecule with its values, some of them ahead of it. Square brackets hold non-standard residues; d marks the D form. * marks the point of attachment. Biotin = O=C1N[C@H]2[C@H](CS[C@H]2CCCCC(=O)*)N1; d(pT) = C[C@H](OP(=O)(O)O)[C@@H](N)C(=O)O; pT = C[C@@H](OP(=O)(O)O)[C@H](N)C(=O)O; 2Nal = N[C@@H](Cc1ccc2ccccc2c1)C(=O)O; Bta = N[C@@H](Cc1csc2ccccc12)C(=O)O; Pip = O=C(O)[C@@H]1CCCCN1; Bth = benzothiophene

How the values were obtained:
hPar14 = hPar14 (Homo sapiens, UniProt Q9Y237); assay: Protease coupled PPIase assay, hPar14; assay type: biochemical; conditions: up to 50 μM
Chain of hPar14 (Q9Y237 whole entry): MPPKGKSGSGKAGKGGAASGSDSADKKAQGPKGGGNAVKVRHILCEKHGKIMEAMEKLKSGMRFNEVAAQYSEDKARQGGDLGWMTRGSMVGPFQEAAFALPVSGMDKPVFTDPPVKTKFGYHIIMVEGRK
Method: FIG. 6 depicts the influence of peptide 17 on the hPar14 PPIase activity. The apparent first order rate constant kobs determined for the cis to trans isomerization of the arginyl-prolyl peptide bond of the substrate Suc-Ala-Arg-Pro-Phe-NH-Np (SEQ ID NO: 3) was measured using the protease coupled PPIase assay. α-Chymotrypsin was used as isomer specific protease. As control, the nonphosphorylated derivative of peptide 17 was used.
PPIase activities were monitored on a Hewlett-Packard 8452A diode array spectrophotometer according to Fischer et al., 1984 and Zhang et al., 2002. The hPar14 PPIase activity was measured with Suc-Ala-Arg-Pro-Phe-NH-Np (SEQ ID NO: 3) (final concentration 75 μM) as substrate and α-chymotrypsin (final concentration 60 μM) as isomer specific protease. PPIase activity of hCyp 18 and FKBP12 were measured using Suc-Ala-Ala-Pro-Phe-NH-Np (SEQ ID NO: 7) as substrate (final concentration 16 μM) and α-chymotrypsin (final concentration 60 μM) as isomer specific protease. PPIase activity of hPin1 was measured with Ac-Ala-Ala-Ser(PO3H2)-Pro-Arg-NH-Np (SEQ ID NO: 4) (final concentration 10 μM) as substrate and trypsin (final concentration 60 μM) as isomer specific protease. Final concentrations of the PPIases were 1.7 μM for hPar14, 4 nM for hPin1, 7 nM for FKBP12 and 9.7 nM for hCyp18. […] Measurements were monitored at 390 nm. […]

X. laevis embryos = assay: Microinjection in X. laevis embryos, cell division; assay type: in vivo; conditions: microinjection at stage 2
Method: FIG. 8 depicts the blocking of cell division by the injection of peptide 17 in X. laevis embryos. 50-300 pmol of peptide 17 or 300 pmol of its nonphosphorylated derivative (control) dissolved in 10 nl PBS buffer were microinjected in the animal half of X. laevis embryos at stage 2 of development. Embryos with large and/or apoptotic appearing cells surrounded by normally developing cells were counted after further 5 hours (stage 8-9) of development. […] Each value is the average of four independent experiments.
FIGS. 9A-F depicts phenotypic analysis of X. laevis embryos after injection of peptide 17. 300 pmol of peptide 17 or its nonphosphorylated derivative dissolved in 10 nl PBS buffer were injected in the animal half of X. laevis embryos at stage 2 of development. 1.5 hour at stage 6 (A), 2.5 hours at stage 7 (B) and 4-5 hours at stage 8-9 (C, D) after injection enlarged cells became visible. Cells that are blocked in cell division are marked with a white arrow. Controls of uninjected embryos of stage 8-9 and embryos that were injected with 300 pmol of the nonphosphorylated derivative of peptide 17 are shown in panels E and F. The site where the nonphosphorylated derivative of peptide 17 was injected is marked with a white arrow (F).
FIGS. 10A-D depict the rescue of peptide 17 caused cell division block in X. laevis embryos by hPin1 (A, B) and different hPin1 variants (C, D). FIG. 10A depicts the time course of V5-tagged hPin1 expression was analyzed by preparation of X. laevis embryo lysate 1, 2 and 4 hours after injection of 1, 2 or 3 ng of V5-tagged hPin1 mRNA. In every case, the injected volume was 10 nl. Lysates were prepared in lysis buffer containing phosphatase and protease inhibitors. Samples were separated by SDS PAGE followed by western blotting. Endogenous XlPin1 and V5-tagged hPin1 were detected using an anti hPin1 PPIase domain antiserum as primary antibody followed by incubation with a horseradish peroxidase-conjugated secondary antibody. Visualization was done using the SuperSignal® substrate. […] In every case, the whole volume of injection was 10 nl. The indicated amount of the mRNA was injected in the animal half of 30 embryos at stage 2 of development. Embryos with large and/or apoptotic appearing cells surrounded by normally developed cells were counted after additional 5 hours of development (stage 8-9). […] Each percentage of vital embryos shown in the figure is the average of four independent experiments. FIG. 10C indicates the expression of V5-tagged hPin1 variants was evaluated by preparation of embryo lysate after 4 hours of injection of the respective mRNA (2 ng) in X. laevis embryos. Lysates were prepared in lysis buffer containing phosphatase and protease inhibitors. Samples were separated using SDS PAGE followed by western blot analysis. Endogenous XlPin1 and injected V5-tagged hPin1 variants were detected using an anti hPin1 PPIase domain antiserum as primary antibody and a horseradish peroxidase-conjugated secondary antibody. Visualization was done by a chemiluminescent reaction using the SuperSignal® substrate (Pierce). FIG. 10D depicts 250 pmol of peptide 17 was coinjected with 2 ng mRNA of the indicated V5-tagged hPin1 variant (whole volume 10 nl) in the animal half of 30 X. laevis embryos at stage 2 of development. Results were analyzed as described for FIG. 10B. Each percentage of vital embryos shown in the figure is the average of four independent experiments.
Microinjection was done into the animal half of X. laevis embryos at stage 2 of development. In every case, the injection volume was 10 nl. Immunofluorescence studies of frozen X. laevis embryo sections were performed as previously described (Julius et al., 2000). Ten-micrometer cryosections of stage 8 embryos were labelled using a monoclonal anti hPin1 antibody (mouse) followed by incubation with Alexa Fluor 546™-conjugated anti mouse antibody of goat serum (Molecular Probes). […]

[1] = molecular target: T1, interaction of MPM-2 antigens with GST-hPin1 (Homo sapiens, UniProt Q13526); assay: MPM-2 competition assay; assay type: binding; conditions: mitotic HeLa cell lysate, 8 μM GST-hPin1
T1 construct: made in house
T1 sequence (Q13526 whole entry): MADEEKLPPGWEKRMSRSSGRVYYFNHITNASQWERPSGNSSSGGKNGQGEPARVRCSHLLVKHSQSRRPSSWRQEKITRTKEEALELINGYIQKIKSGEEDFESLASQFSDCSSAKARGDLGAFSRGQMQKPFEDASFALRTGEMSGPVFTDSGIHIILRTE
Method: FIG. 7 depicts the influence of peptide 17 on the interaction of MPM-2 antigens with hPin1. The indicated concentration of peptide 17 or its nonphosphorylated derivative (control) was incubated with an 8 μM solution of GST-hPin1. After addition of mitotic HeLa cell lysate, GST-hPin1 was extracted from the respective mixture using glutathione sepharose. Samples were analyzed regarding extracted GST-hPin1 and coprecipitated MPM-2 antigenes by SDS PAGE and western blot analysis. Untreated lysate of mitotic HeLa cells was loaded on the first line (extract). MPM-2 antigenes were detected using the monoclonal anti MPM-2 antibody (mouse). GST-hPin1 was detected using an anti hPin1 PPIase domain antiserum (rabbit). Horseradish peroxidase-conjugated antibodies from mouse or rabbit were used as secondary antibodies. […]
1.3 mM of Peptide 17 or its nonphosphorylated derivative were incubated with GST-hPin1 (8 μM) for 2 hours at 4° C. […] Following SDS-PAGE, the samples were analyzed by western blot analysis. GST-hPin1 and coextracted MPM-2 antigens were detected using an anti hPin1 PPIase domain antiserum (rabbit) or monoclonal anti MPM-2 antibody (Upstate Biotechnology) from mouse. […]
MPM-2 antigens are mitotic phosphoproteins that are specifically recognized by the monoclonal antibody MPM-2. […] The coextracted MPM-2 antigenes were detected after SDS PAGE by western blot analysis using the anti MPM-2 antibody. […]

full-length hPin1 [2] = molecular target: T2, full-length hPin1 (human, UniProt Q13526 1-163); assay: isothermal titration calorimetry, single binding site model
T2 sequence (Q13526 whole entry): as above

full-length hPin1 [3] = molecular target: T2, full-length hPin1; assay: method not stated there (ITC value of paragraph 223 rounded); D isomer
full-length hPin1 [4] = molecular target: T2, full-length hPin1; assay: comparison of Kd values
full-length hPin1 [5] = molecular target: T2, full-length hPin1; assay: isothermal titration calorimetry, 10 °C, full-length hPin1 in the cell
full-length hPin1 [6] = molecular target: T2, full-length hPin1; assay: inhibition of PPIase activity
full-length hPin1 [7] = molecular target: T2, full-length hPin1; assay: cell-based or functional assay
full-length hPin1 [8] = molecular target: T2, full-length hPin1; assay: cell-based or functional assay; remark: listed apart in the source
full-length hPin1 [9] = molecular target: T2, full-length hPin1; assay: cell-based or functional assay; remark: listed apart in the source

Ka (full-length hPin1 [2]): 5.18e+07 M⁻¹ | n (binding stoichiometry) (full-length hPin1 [2]): 0.96 | Kd (full-length hPin1 [3]): 19 nM | fold tighter binding against Ac-Phe-L-Thr(PO3H2)-Pip-Nal-Gln-NH2 (full-length hPin1 [4]): 30 fold | binding enthalpy ΔHbind (full-length hPin1 [5]): -4.56 kcal/mol | binding entropy TΔSbind (full-length hPin1 [5]): 5.43 kcal/mol
Molecule: peptide 17, Ac-Phe-D-Thr(PO3H2)-Pip-Nal-Gln-NH2

IC50(µM), blockade of the PPIase activity of hPin1, protease free PPIase assay (full-length hPin1 [9]): 0.21 µM
B3: peptide 15, Ac-Lys(N^ε-biotinoyl)-Ala-Ala-Bth-Thr(PO3H2)Pip-Nal-Gln-NH2 (peptide)
peptide: Ac-K(Biotin)AA[Bth][pT][Pip]AQ-NH2
modifications: not fully specified (residue 7); printed as Ac-Lys(N^ε-biotinoyl)-Ala-Ala-Bth-Thr(PO3H2)Pip-Nal-Gln-NH2

More lines, now with the values behind:

Molecule: nonphosphorylated derivative of peptide 17: nonphosphorylated derivative of peptide 17, used as control (Ac-F[dT][Pip][2Nal]Q-NH2) [reference compound]
inhibition of hPar14 PPIase activity (hPar14): No inhibition | effect on development of the embryos (X. laevis embryos): no visible effect | influence on interaction of MPM-2 antigenes with GST-hPin1 [1]: had no effect

B1: peptide 16, Ac-Lys(N^ε-biotinoyl)-Ala-Ala-Bth-D-Thr(PO3H2)-Pip-Nal-Gln-NH2 (peptide)
peptide: Ac-K(Biotin)AA[Bta][d(pT)][Pip][2Nal]Q-NH2
fold decrease of Ki against peptide 15 (full-length hPin1 [6]): 150 fold

B2: peptide 4 (peptide)
peptide: Ac-K(Biotin)AA[Bta][pT]P[2Nal]Q-NH2
IC50(µM), blockade of the PPIase activity of hPin1, protease free PPIase assay (full-length hPin1 [7]): 20 µM | fold decrease of inhibition of hPin1 PPIase activity against peptide 15 (full-length hPin1 [8]): 100 fold
